Laboratory results: patent publication US20130071366A1 (CANCER RESEARCH TECHNOLOGY, published 2013)
Substitutions are numbered along the chain they refer to. In names and notes the source's numbering stands. Like-named read-outs stand apart in the source and are kept apart here. Values belong to the binder of their own block, whether it stands above or below them.

Legend:
[1] = biological target: T1, Insulin-like Growth Factor II (IGF-II), recombinant human (human, UniProt P01344 25-91, biotinyl group (site not stated) when immobilised for SPR; not biotinylated as SPR analyte or in ITC); experiment: SPR, steady-state KD relative to wild type domain 11
T1 construct: mature; Bought as Biotinyl-IGF-II from GroPep for immobilisation on streptavidin chips; also called IGF2; Biotinyl-IGF-II
Description: […]. Values are the mean±S.E.M. of three separate experiments.
(§1) Kinetic analysis by Surface Plasmon Resonance (SPR) was conducted on a BIAcore 3000 biosensor (BIAcore, Uppsala, Sweden) at 25° C. in HBS-EP (10 mM HEPES, pH 7.4, 150 mM NaCl, 3 mM EDTA, 0.005% surfactant P20) at a flow rate of 40 μl/min. […] Kinetic experiments consisted of a two minute injection of analyte followed by a 100s dissociation phase in running buffer, after which the binding surface was regenerated with a 2 minute injection of 2 M MgCl₂. A blank flow cell was used for in-line reference subtraction of changes due to differences in refractive index of running buffer versus sample and a buffer-only injection was used to subtract instrument noise and drift. Injections were performed in duplicate for each concentration and in a randomised order. Kinetic parameters were determined by global fitting of sensorgrams to a two-state (conformational change) binding model using BIAevaluation software version 4.0.1. In all cases the minor component made an insignificant contribution to the overall affinity and as such only the kinetic parameters of the major binding component were used. For each interaction the dissociation affinity constant (KD) was also calculated by fitting of the response of each concentration at equilibrium to a steady-state affinity model using BIAevaluation. In order to investigate the influence of ionic strength, kinetic experiments were conducted in HBS-EP running buffers containing the desired NaCl concentration. In each case, analyte samples were made up in the appropriate running buffer prior to injection.
Following purification, the binding of each mutant construct to IGF2 was assessed by SPR and compared to the wild type domain 11.

[2] = biological target: T1, Insulin-like Growth Factor II (IGF-II), …; experiment: as above; remark: listed apart in the source
Description: as §1, with “BIAevaluation.” for “BIAevaluation. In order to investigate the influence of ionic strength, kinetic experiments were conducted in HBS-EP running buffers containing the desired NaCl concentration. In each case, analyte samples were made up in the appropriate running buffer prior to injection.”

[3] = biological target: T1, Insulin-like Growth Factor II (IGF-II), …; experiment: as above; remark: listed apart in the source
[4] = biological target: T1, Insulin-like Growth Factor II (IGF-II), …; experiment: ITC
Description: Calorimetric measurements were performed using a VP-ITC microcalorimeter (MicroCal). All solutions were thoroughly degassed before use by stirring under vacuum. […] The sample cell contained either wild type domain 11 (7 uM) or the E1544A mutant (8 μM), also in HBS-E buffer. To correct for the heat effects of dilution and mixing, reaction heats obtained from a control experiment, in which IGF2 was injected into HBS-E, were subtracted. calorimetric data were analysed using MicroCal ORIGIN software (version 5.0) supplied with the instrument. Thermodynamic parameters were derived by fitting the binding isotherms to a single-site binding model. Values for dissociation affinity constants (KD) were determined from duplicate experiments.
In order to validate the SPR sensorgram data, ITC was used to assess the binding affinity between domain 11 and IGF-II. The affinity of the E1544A mutant was also assessed by ITC in order to confirm whether use of a second technique agreed as to the apparent increase in affinity (FIG. 6 and Table 6). Titrations were performed using […] injections of 40 μM IGF-II (after an initial 7.5 μl injection) into the reaction cell containing wild type domain 11 or the E1544A mutant. […] The two fold differences may be simply accounted for by the fidelity of both techniques.

[5] = biological target: T1, Insulin-like Growth Factor II (IGF-II), …; experiment: SPR, biotinylated IGF-II on a streptavidin chip, domain 11 protein injected as analyte at 16384 to 32 nM
Description: The polymorphism G1619R (l) has an apparent wild type interaction and the E1544A (d) mutation has a modest positive affect on IGF-II binding.
as §1, with “In all cases the minor component made an insignificant contribution to the overall affinity and as such only the kinetic parameters of the major binding component were used.” left out, “In order to investigate the influence of ionic strength, kinetic experiments were conducted in HBS-EP running buffers containing the desired NaCl concentration. In each case, analyte samples were made up in the appropriate running buffer prior to injection.” left out
Following purification, the binding of each mutant construct to IGF2 was assessed by SPR and compared to the wild type domain 11. […]

[6] = biological target: T1, Insulin-like Growth Factor II (IGF-II), …; experiment: SPR, biotinyl-IGF-II immobilised
From the text: (§2) The affinity of versions of Fc-tagged domain 11 fusion proteins, and domain 11 constructs, for IGF-II were compared using surface plasmon resonance (BIAcore 3000). Attempts were made to immobilize Fc-tagged domain 11 proteins upon a sensor chip surface (CM5 and CM5-proteinA) but we encountered similar problems as described above with immobilised monomeric domain 11. Instead, immobilisation of biotinylated IGF-I and IGF-II on separate flow cells of a streptavidin coated sensor chip (BIAcore) generated reproducible sensorgram profiles when Fc-tagged and untagged domain 11 proteins were passed over the surface as analytes. The Fc-tagged domain 11 kinetic data performed in triplicate generated sensorgrams that were analyzed using a bivalent analyte model. […] Both Fc-tagged proteins appeared to have reduced off-rates compared to the untagged monomers.

[7] = biological target: T1, Insulin-like Growth Factor II (IGF-II), …; experiment: SPR, biotinyl-IGF-II immobilised, bivalent analyte model
From the text: as §2

T1 sequence (P01344 25-91): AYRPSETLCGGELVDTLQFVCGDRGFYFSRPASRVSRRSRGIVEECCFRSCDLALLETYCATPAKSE

B1: IGF2R domain 11, wild type, expressed in Pichia pastoris with C-terminal His6 tag (receptor)
chain: NEHDDCQVTNPSTGHLFDLSSLSGRAGFTAAYSEKGLVYMSICGENENCPPGVGACFGQTRISVGKANKRLRYVDQVLQLVYKDGSPCPSKSGLSYKSVISFVCRPEAGPTNRPMLISLDKQTCTLFFSWHTPLACEQATHHHHHH
notes: Alpha-factor signal is cleaved during secretion; soluble 17 kDa protein; also called WT; wild type domain 11
- Relative Affinity [1]: 1 fold vs wild type domain 11
- Relative Affinity [2]: 1 fold vs wild type domain 11
- Relative Affinity [3]: 1 fold vs wild type domain 11

B3: IGF2R domain 11 with H at position 1544 (receptor)
chain: B1 chain with E34H
notes: Secreted from Pichia pastoris; also called E1544H
- Relative Affinity [3]: 3.07 fold vs wild type domain 11

B4: IGF2R domain 11 T1570A (receptor)
chain: B1 chain with T60A
notes: Secreted from Pichia pastoris
- Relative Affinity [1]: 0.11 fold vs wild type domain 11

B5: IGF2R domain 11 with W at position 1544 (receptor)
chain: B1 chain with E34W
notes: Secreted from Pichia pastoris; also called E1544W
- Relative Affinity [3]: 1.94 fold vs wild type domain 11

B6: IGF2R domain 11 with G at position 1544 (receptor)
chain: B1 chain with E34G
notes: Secreted from Pichia pastoris; also called E1544G
- Relative Affinity [3]: 0.57 fold vs wild type domain 11

B8: IGF2R domain 11 with L at position 1544 (receptor)
chain: B1 chain with E34L
notes: Secreted from Pichia pastoris; also called E1544L
- Relative Affinity [3]: 2.02 fold vs wild type domain 11

B9: IGF2R domain 11 E1544A (receptor)
chain: B1 chain with E34A
notes: Secreted from Pichia pastoris
- relative affinity increase over wild type by ITC [4]: ~2 fold vs wild type domain 11
- Relative Affinity [1]: 2.79 fold vs wild type domain 11
- Relative Affinity [2]: 2.79 fold vs wild type domain 11
- Relative Affinity [3]: 2.79 fold vs wild type domain 11

B11: IGF2R domain 11 with I at position 1544 (receptor)
chain: B1 chain with E34I
notes: Secreted from Pichia pastoris; also called E1544I
- Relative Affinity [3]: 2.43 fold vs wild type domain 11

B12: IGF2R domain 11 S1543A (receptor)
chain: B1 chain with S33A
notes: Secreted from Pichia pastoris
- Relative Affinity [1]: 0.39 fold vs wild type domain 11

B14: IGF2R domain 11 I1572A (null mutant) (receptor)
chain: B1 chain with I62A
notes: Secreted from Pichia pastoris
- binding result [5]: no binding (tested: 16384 nM)

B17: IGF2R domain 11 Q1569A (receptor)
chain: B1 chain with Q59A
notes: Secreted from Pichia pastoris
- Relative Affinity [1]: 0.8 fold vs wild type domain 11

B18: IGF2R domain 11 with S at position 1544 (receptor)
chain: B1 chain with E34S
notes: Secreted from Pichia pastoris; also called E1544S
- Relative Affinity [3]: 5.24 fold vs wild type domain 11

B19: IGF2R domain 11 with Q at position 1544 (receptor)
chain: B1 chain with E34Q
notes: Secreted from Pichia pastoris; also called E1544Q
- Relative Affinity [3]: 3.87 fold vs wild type domain 11

B21: IGF2R domain 11 with N at position 1544 (receptor)
chain: B1 chain with E34N
notes: Secreted from Pichia pastoris; also called E1544N
- Relative Affinity [3]: 0.88 fold vs wild type domain 11

B26: IGF2R domain 11 E1544K (enhanced mutant) (receptor)
chain: B1 chain with E34K
notes: Secreted from Pichia pastoris
- Relative Affinity [2]: 6.12 fold vs wild type domain 11
- Relative Affinity [3]: 6.12 fold vs wild type domain 11

B27: IGF2R domain 11 E1544V (receptor)
chain: B1 chain with E34V
notes: Secreted from Pichia pastoris
- Relative Affinity [2]: 1.96 fold vs wild type domain 11
- Relative Affinity [3]: 1.96 fold vs wild type domain 11

B28: Fc-tagged enhanced mutant IGF2R domain 11 (11^E1544K-Fc) (Fc fusion)
chain: NEHDDCQVTNPSTGHLFDLSSLSGRAGFTAAYSKKGLVYMSICGENENCPPGVGACFGQTRISVGKANKRLRYVDQVLQLVYKDGSPCPSKSGLSYKSVISFVCRPEAGPTNRPMLISLDKQTCTLFFSWHTPLACEQAT
modifications: N-glycosylated with Man3GlcNAc2 (Drosophila cells)
notes: Homodimer, secreted from Drosophila D.Mel-2 cells; not shown: human IgG1 Fc domain, amplified from IMAGE clone 4851063 (ATCC-6878978)
- RU response relative to 11-Fc at equal concentrations [6]: ~2 fold vs 11-Fc
- molar affinity relative to 11-Fc [7]: ~2 fold vs 11-Fc

Further lines, results first:

- Relative Affinity [1]: 0.36 fold vs wild type domain 11
B2: IGF2R domain 11 K1545A (receptor)
chain: B1 chain with K35A
notes: Secreted from Pichia pastoris

- Relative Affinity [3]: 0.49 fold vs wild type domain 11
B7: IGF2R domain 11 with P at position 1544 (receptor)
chain: B1 chain with E34P
notes: Secreted from Pichia pastoris; also called E1544P

- Relative Affinity [1]: 0.61 fold vs wild type domain 11
B10: IGF2R domain 11 S1596A (receptor)
chain: B1 chain with S86A
notes: Secreted from Pichia pastoris

- Relative Affinity [3]: 1.83 fold vs wild type domain 11
B13: IGF2R domain 11 with F at position 1544 (receptor)
chain: B1 chain with E34F
notes: Secreted from Pichia pastoris; also called E1544F

- Relative Affinity [1]: 0.9 fold vs wild type domain 11
B15: IGF2R domain 11 G1619R (common human polymorphism) (receptor)
chain: B1 chain with G109R
notes: Secreted from Pichia pastoris

- Relative Affinity [3]: 2.75 fold vs wild type domain 11
B16: IGF2R domain 11 with M at position 1544 (receptor)
chain: B1 chain with E34M
notes: Secreted from Pichia pastoris; also called E1544M

- Relative Affinity [3]: 0.48 fold vs wild type domain 11
B20: IGF2R domain 11 with D at position 1544 (receptor)
chain: B1 chain with E34D
notes: Secreted from Pichia pastoris; also called E1544D

- Relative Affinity [1]: 0.16 fold vs wild type domain 11
B22: IGF2R domain 11 Y1542A (receptor)
chain: B1 chain with Y32A
notes: Secreted from Pichia pastoris

- Relative Affinity [3]: 1.72 fold vs wild type domain 11
B23: IGF2R domain 11 with T at position 1544 (receptor)
chain: B1 chain with E34T
notes: Secreted from Pichia pastoris; also called E1544T

- Relative Affinity [3]: 7.33 fold vs wild type domain 11
B24: IGF2R domain 11 with R at position 1544 (receptor)
chain: B1 chain with E34R
notes: Secreted from Pichia pastoris; also called E1544R

- Relative Affinity [3]: 1.8 fold vs wild type domain 11
B25: IGF2R domain 11 with Y at position 1544 (receptor)
chain: B1 chain with E34Y
notes: Secreted from Pichia pastoris; also called E1544Y
